Experimental data: IntAct's records for PubMed 13679922

B1: Cullin-3 (Caenorhabditis elegans), Q17391 (parent)
chain: MSGRSGNGGQQKMRIRPFMATIDEQYVTQTWELLKRAIQEIQRKNNSGLSFEELYRNAYTMVLHKHGERLYNGLKDVIQDHMASVRIRIIESMNSGSFLETVAESWADHTVAMVMIRDILMYMDRIYVAQNNHVLPVYNLGLDAYRTEILRQNGIGDRIRDALLELIKLDRKSNQINWHGIKNACDMLISLGIDSRTVYEDEFERPLLKETSDYYRDVCKNWLSGDNDACFYLAQVEIAMHDEASRASRYLDKMTEAKILQVMDDVMVAEHIQTIVYMQNGGVKFMLEHKKIEDLTRIFRIFKRIGDSVTVPGGGLKALLKAVSEYLNETGSNIVKNEDLLKNPVNFVNELLQLKDYFSSLLTTAFADDRDFKNRFQHDFETFLNSNRQSPEFVALYMDDMLRSGLKCVSDAEMDNKLDNVMILFRYLQEKDVFEKYFKQYLAKRLLLDKSCSDDVEKALLAKLKTECGCQFTQKLENMFRDKELWLTLATSFRDWREAQPTKMSIDISLRVLTAGVWPTVQCNPVVLPQELSVAYEMFTQYYTEKHTGRKLTINTLLGNADVKATFYPPPKASMSNEENGPGPSSSGESMKERKPEHKILQVNTHQMIILLQFNHHNRISCQQLMDELKIPERELKRNLQSLALGKASQRILVRKNKGKDAIDMSDEFAVNDNFQSKLTRVKVQMVTGKVESEPEIRETRQKVEDDRKLEVEAAIVRIMKARKKLNHNNLVAEVTQQLRHRFMPSPIIIKQRIETLIEREYLARDEHDHRAYQYIA
partner: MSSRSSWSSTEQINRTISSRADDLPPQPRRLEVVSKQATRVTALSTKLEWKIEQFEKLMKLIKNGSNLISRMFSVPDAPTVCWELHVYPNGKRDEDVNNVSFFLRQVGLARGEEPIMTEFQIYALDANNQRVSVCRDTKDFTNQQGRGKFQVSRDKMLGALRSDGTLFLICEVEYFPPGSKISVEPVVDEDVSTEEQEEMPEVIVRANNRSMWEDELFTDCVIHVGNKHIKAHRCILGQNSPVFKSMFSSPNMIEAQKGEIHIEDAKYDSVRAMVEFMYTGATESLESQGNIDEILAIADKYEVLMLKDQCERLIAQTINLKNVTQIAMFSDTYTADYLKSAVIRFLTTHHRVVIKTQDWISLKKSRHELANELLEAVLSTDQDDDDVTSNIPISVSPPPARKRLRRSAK
B2: Protein maternal effect lethal 26 (Caenorhabditis elegans), Q94420 (parent)
chain: MEPRIDGGVFIGGIGNSGNEMCSNGVPALGVSSQTEIKVEKVQHTWTVKNFSHCYQEYLENFVYLQRGDEQLTWSIKIYPKGNGENNKDFVFLCLNRVINNNVKAGKIGFKSQFKLRTAENKDIEMRIHPNPSHSDYVSYIKRDVLFPQIMPRDMIIVNVEIDVAVETITTTNEPIQFEPTNSEQQLIEDYQRLFSQELLCDFAINVNGKIIRAHKAVLAARSPVFNAMLTHQDTDEAKSSMMYINDMDYDVIYEMVYYIYCGRCNKDITDMATALLIAADKYRLEELKSHCEKYLVENINIENACSLLIIGDLYSAPKLRKRAVTYILARPKNVTGTPGWEDILKGHPNLITDIFSQIDRQSSTGATSSVSNLPGVPMDIPGITGNIVPPPSGL
partner: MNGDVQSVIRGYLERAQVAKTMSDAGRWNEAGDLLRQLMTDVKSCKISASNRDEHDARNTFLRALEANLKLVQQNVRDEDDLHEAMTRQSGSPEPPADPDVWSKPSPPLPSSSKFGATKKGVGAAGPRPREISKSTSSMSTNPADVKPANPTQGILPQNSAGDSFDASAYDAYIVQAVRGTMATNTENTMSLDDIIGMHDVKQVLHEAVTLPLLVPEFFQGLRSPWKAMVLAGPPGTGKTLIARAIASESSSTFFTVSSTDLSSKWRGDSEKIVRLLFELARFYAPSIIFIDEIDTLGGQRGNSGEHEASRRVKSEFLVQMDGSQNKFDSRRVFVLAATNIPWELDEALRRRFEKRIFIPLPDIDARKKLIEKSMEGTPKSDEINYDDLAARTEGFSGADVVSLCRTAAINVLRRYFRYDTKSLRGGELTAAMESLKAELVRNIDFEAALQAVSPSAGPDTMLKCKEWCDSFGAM
B3: Cullin-3 (Caenorhabditis elegans), Q17391 (parent)
chain: B1 chain
partner: B2 chain
B4: Meiotic spindle formation protein mei-1 (Caenorhabditis elegans), P34808-2 (parent)
chain: B2 partner
partner: B2 chain

Variants of: B1
Conditions: with bat42_caeel bath-42, P34371

Variant	effect of a mutation on the interaction
L49A	decreasing interaction
E52A	decreasing interaction

Variants of: B2
Conditions: with mei-1, P34808-2

Variant	effect of a mutation on the interaction
C94Y	decreasing interaction

Variants of: B3
Conditions: with mel26_caeel mel-26, Q94420

Variant	effect of a mutation on the interaction
L49A	decreasing interaction
E52A	decreasing interaction

Variants of: B4
Conditions: with mel26_caeel mel-26, Q94420

Variant	effect of a mutation on the interaction
P99L	decreasing interaction
